Reference: publication PMC9537296 (Scientific Reports, 2022)

Legend:
[1] = molecular target: T1, FcγRIIB/C (Homo sapiens, UniProt P31994); test: FcγRIIB/C binding by SPR; details: SPR BIACORE T200, 25 °C, steady-state affinity fit; read-out: Binding affinities (KD) FcγRIIB/C
T1 construct: purchased
T1 sequence (P31994 43-310): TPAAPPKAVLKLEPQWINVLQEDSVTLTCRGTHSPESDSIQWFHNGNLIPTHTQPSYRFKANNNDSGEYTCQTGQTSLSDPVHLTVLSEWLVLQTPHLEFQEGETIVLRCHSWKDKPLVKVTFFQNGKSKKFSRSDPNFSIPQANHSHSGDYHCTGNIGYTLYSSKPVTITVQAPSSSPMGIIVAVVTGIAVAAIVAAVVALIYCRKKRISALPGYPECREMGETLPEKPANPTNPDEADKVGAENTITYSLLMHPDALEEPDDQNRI
Description: All experiments were carried out on a BIACORE T200 instrument (GE Healthcare, USA) at 25 °C. Amine coupling chemistry was used to immobilize FcγRs on the surface of a CM5 sensor chip. For activation, a mixture of NHS and EDC solution was injected onto a CM5 sensor chip for 7 min at a flow rate of 10 μL/min. FcγRIA, FcγRIIA, FcγRIIB/C, FcγRIIIA, and FcγRIIIB were immobilized on CM5 chips by injecting 5 μg/mL of FcγRIA, 10 μg/mL of FcγRIIA, 2 μg/mL of FcγRIIIA, 10 μg/mL of FcγRIIIB, and 10 μg/mL of FcγRIIB/C diluted with 10 mM sodium acetate (pH 4.5) onto CM5 chips at a flow rate of 5 μL/min. The target RU was 1500 RU for FcγRIA and FcγRIIA, 3,000 RU for FcγRIIB/C and FcγRIIIB, and 1,000 RU for FcγRIIIA. To deactivate unreacted moieties, the chip surface was blocked with 1 M ethanolamine/HCl (pH 8.5) for 7 min at a flow rate of 10 L/min. […] The test materials were injected for 10 min (for Fc immobilized with FcγRIA and FcγRIIA) or 15 min (for Fc immobilized with FcγRIIIA, FcγRIIIB, and FcγRIIB/C) for association, followed by 10 min-dissociation at 20 μL/min. Binding affinity was evaluated with a steady-state affinity fitting model in BIACORE T200 Evaluation Software version 3.0. Blank-subtracted sensograms (RU form reference channel and blanks were subtracted) were used for evaluation.

[2] = molecular target: T2, FcγRIIA (Homo sapiens, UniProt P12318); test: FcγRIIA binding by SPR; details: SPR BIACORE T200, 25 °C, steady-state affinity fit; read-out: Binding affinities (KD) FcγRIIA
T2 construct: purchased
T2 sequence (P12318 34-317): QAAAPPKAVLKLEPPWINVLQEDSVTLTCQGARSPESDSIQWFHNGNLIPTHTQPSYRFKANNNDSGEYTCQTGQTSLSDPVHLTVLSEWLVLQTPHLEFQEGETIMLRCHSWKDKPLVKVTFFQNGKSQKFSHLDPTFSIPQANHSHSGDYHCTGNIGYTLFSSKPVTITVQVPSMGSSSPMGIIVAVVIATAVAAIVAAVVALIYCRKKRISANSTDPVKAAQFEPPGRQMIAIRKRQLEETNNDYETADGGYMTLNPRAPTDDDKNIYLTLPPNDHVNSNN
Description: (§1) All experiments were carried out on a BIACORE T200 instrument (GE Healthcare, USA) at 25 °C. Amine coupling chemistry was used to immobilize FcγRs on the surface of a CM5 sensor chip. For activation, a mixture of NHS and EDC solution was injected onto a CM5 sensor chip for 7 min at a flow rate of 10 μL/min. FcγRIA, FcγRIIA, FcγRIIB/C, FcγRIIIA, and FcγRIIIB were immobilized on CM5 chips by injecting 5 μg/mL of FcγRIA, 10 μg/mL of FcγRIIA, 2 μg/mL of FcγRIIIA, 10 μg/mL of FcγRIIIB, and 10 μg/mL of FcγRIIB/C diluted with 10 mM sodium acetate (pH 4.5) onto CM5 chips at a flow rate of 5 μL/min. The target RU was 1500 RU for FcγRIA and FcγRIIA, 3,000 RU for FcγRIIB/C and FcγRIIIB, and 1,000 RU for FcγRIIIA. To deactivate unreacted moieties, the chip surface was blocked with 1 M ethanolamine/HCl (pH 8.5) for 7 min at a flow rate of […]. HMC001 and I.V.-Globulin SN were diluted with running buffer to 500, 250, 125, 62.5, and 31.25 nM. HM15136 was diluted with running buffer to 486, 243, 121.5, 60.75, and 30.38 nM. The test materials were injected for 10 min (for Fc immobilized with FcγRIA and FcγRIIA) or 15 min (for Fc immobilized with FcγRIIIA, FcγRIIIB, and FcγRIIB/C) for association, followed by 10 min-dissociation at 20 μL/min. Binding affinity was evaluated with a steady-state affinity fitting model in BIACORE T200 Evaluation Software version 3.0. […]

[3] = molecular target: T3, FcγRIIIB (Homo sapiens, UniProt O75015); test: FcγRIIIB binding by SPR; details: SPR BIACORE T200, 25 °C, steady-state affinity fit; read-out: Binding affinities (KD) FcγRIIIB
T3 construct: purchased
T3 sequence (O75015 17-233): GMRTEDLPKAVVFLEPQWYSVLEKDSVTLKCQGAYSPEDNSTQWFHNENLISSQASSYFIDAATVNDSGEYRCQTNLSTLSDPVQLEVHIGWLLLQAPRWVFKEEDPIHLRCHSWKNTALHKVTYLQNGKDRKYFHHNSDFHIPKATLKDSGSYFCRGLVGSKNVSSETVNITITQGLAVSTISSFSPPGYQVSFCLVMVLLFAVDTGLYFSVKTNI
Description: as §1

[4] = molecular target: T4, FcγRIA (Homo sapiens, UniProt P12314); test: FcγRIA binding by SPR; details: SPR BIACORE T200, 25 °C, steady-state affinity fit; read-out: Binding affinities (KD) FcγRIA
T4 construct: purchased
T4 sequence (P12314 16-374): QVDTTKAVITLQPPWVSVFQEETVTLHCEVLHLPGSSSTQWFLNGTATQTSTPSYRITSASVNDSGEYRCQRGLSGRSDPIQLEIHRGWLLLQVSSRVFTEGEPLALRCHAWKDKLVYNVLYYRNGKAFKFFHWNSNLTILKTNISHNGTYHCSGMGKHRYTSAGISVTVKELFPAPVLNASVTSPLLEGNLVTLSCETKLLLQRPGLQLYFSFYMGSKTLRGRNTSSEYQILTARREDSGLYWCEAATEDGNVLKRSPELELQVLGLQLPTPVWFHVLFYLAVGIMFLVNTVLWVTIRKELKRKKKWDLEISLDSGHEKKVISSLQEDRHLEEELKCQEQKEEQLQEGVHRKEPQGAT
Description: as §1

[5] = molecular target: T5, FcγRIIIA (Homo sapiens, UniProt P08637); test: FcγRIIIA binding by SPR; details: SPR BIACORE T200, 25 °C, steady-state affinity fit; read-out: Binding affinities (KD) FcγRIIIA
T5 construct: purchased
T5 sequence (P08637 17-254): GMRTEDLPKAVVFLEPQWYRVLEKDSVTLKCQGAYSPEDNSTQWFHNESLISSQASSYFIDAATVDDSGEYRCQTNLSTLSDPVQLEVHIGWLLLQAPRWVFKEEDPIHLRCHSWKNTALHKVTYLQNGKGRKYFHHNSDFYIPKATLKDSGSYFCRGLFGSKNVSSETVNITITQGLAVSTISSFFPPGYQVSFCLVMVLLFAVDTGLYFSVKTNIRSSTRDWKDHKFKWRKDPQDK
Description: as §1

[6] = molecular target: human C1q (Homo sapiens, UniProt P02745+P02746+P02747); test: C1q binding by SPR; details: SPR BIACORE T200, test material immobilized, steady-state affinity fit; read-out: Binding affinities (KD) C1q
Chain of human C1q (P02745 23-245): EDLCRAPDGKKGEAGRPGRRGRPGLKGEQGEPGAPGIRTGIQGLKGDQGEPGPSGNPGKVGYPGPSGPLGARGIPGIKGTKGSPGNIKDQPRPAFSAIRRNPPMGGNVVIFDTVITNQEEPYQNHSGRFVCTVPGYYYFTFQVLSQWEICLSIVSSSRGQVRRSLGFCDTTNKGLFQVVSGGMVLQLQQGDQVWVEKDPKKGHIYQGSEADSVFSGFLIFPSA
Chain of human C1q (P02746 28-253): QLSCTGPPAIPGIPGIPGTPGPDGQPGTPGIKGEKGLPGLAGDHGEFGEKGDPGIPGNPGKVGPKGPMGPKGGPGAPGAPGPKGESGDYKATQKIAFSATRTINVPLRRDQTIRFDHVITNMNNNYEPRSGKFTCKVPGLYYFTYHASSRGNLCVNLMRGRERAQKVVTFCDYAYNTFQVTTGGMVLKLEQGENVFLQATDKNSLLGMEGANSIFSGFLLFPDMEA
Chain of human C1q (P02747 29-245): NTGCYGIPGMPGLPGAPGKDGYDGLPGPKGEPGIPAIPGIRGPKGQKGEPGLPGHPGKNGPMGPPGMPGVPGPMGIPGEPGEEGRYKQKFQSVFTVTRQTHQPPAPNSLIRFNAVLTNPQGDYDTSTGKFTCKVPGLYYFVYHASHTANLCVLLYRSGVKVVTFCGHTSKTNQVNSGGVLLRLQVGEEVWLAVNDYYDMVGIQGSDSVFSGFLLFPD
Description: The target immobilization of the three materials was 3000 RU. To stabilize the sensor chip, running buffer (HBS-EP) was injected for 10 min, followed by 10 min dissociation at 25 μL/min before test material injection. Then, regeneration buffer was injected for 30 s at 25 μL/min; this step was repeated three times. C1q was diluted with running buffer to 50, 25, 12.5, 6.25, and 3.125 nM and injected for 6 min for association, followed by 10-min dissociation at 25 μL/min. The remaining C1q was regenerated with regeneration buffer for 30 s at 25 μL/min; this step was repeated three times. Binding affinity was evaluated with a steady-state affinity fitting model in BIACORE T200 Evaluation Software version 3.0. Blank-subtracted sensograms (RU form reference channel and blank were subtracted) were used for evaluation.

[7] = system: hyperinsulinemic hypoglycemia; details: meta-analysis of six cohorts (1142 subjects); cited from earlier work
From the text: Diazoxide, a first-line therapy, is a nondiuretic benzothiadizine originally formulated as a peripheral vasodilator for the treatment of hypertension. […] Octreotide—a synthetic peptide analog of somatostatin—has been frequently used as a second-line therapy to treat patients with CHI who are not res ...

Kd [1]	Kd [2]	Kd [3]	Kd [4]	Kd [5]	Kd [6]	Molecule	response rate [7]
> 500 nM	> 500 nM	> 500 nM	> 500 nM	> 500 nM	> 500 nM	HMC001: Fc fragment of human immunoglobulin G4, derived from Escherichia coli, lacks glycosylation	–
–	–	–	–	–	–	CC1=NS(=O)(=O)c2cc(Cl)ccc2N1 [diazoxide, Diazoxide]	71%
